According to the RNAGym collection of RNA variant scans (doi:10.7554/elife.80360):

B1: Twister Ribozyme (parent)
chain: AACACUGCCAAUGCCGGUCCCAAGCCCGGAUAAAAGUGGAGGGGGCGG

Variants of: B1
Assay: self-cleavage, relative activity (ratio to wild type); higher = more cleavage; co-transcriptional
Work on C26A A40G yielded a self-cleavage of 0.182. With C26G A33C the self-cleavage was 0.129. Work on G24A G42C yielded a self-cleavage of 0.0923. For G24A G42U, the self-cleavage was 0.091. C26A G39U showed a self-cleavage of 0.116. C26A G39A gave a self-cleavage of 0.107. C25G A40G gave a self-cleavage of 0.129. Work on C25G A40C yielded a self-cleavage of 0.0986. Variant C25G A40U has a self-cleavage of 0.103. With C26U G44U the self-cleavage was 0.249. With C26U G44A the self-cleavage was 0.537. Work on C26U G28U yielded a self-cleavage of 0.142. C26U G28C showed a self-cleavage of 0.134. In the case of C26U G28A, the self-cleavage is reported as 0.106. Work on C25U A32U yielded a self-cleavage of 0.799. For C25U A34C, the self-cleavage was 0.0649. C25U A34G showed a self-cleavage of 0.487. In the case of C26G G41C, the self-cleavage is reported as 0.0955. In the case of C26G G41U, the self-cleavage is reported as 0.0825. For C26U C27G, the self-cleavage was 0.0958. C26U C27U showed a self-cleavage of 0.115. Variant C26U C27A has a self-cleavage of 0.102. G24C G47U gave a self-cleavage of 0.0811. C25A G48U gave a self-cleavage of 0.0867. In the case of C25A G48A, the self-cleavage is reported as 0.106. C25U U37A gave a self-cleavage of 0.392. With C25U U37C the self-cleavage was 0.133. Work on C25U G44C yielded a self-cleavage of 0.692. Variant C26G G47U has a self-cleavage of 0.116. With C26G G47A the self-cleavage was 0.177. C26G G47C showed a self-cleavage of 0.145. For G24U C46G, the self-cleavage was 0.081. C25A A40U gave a self-cleavage of 0.0741. G24A G44U gave a self-cleavage of 0.0885. For G24U C27A, the self-cleavage was 0.106. Work on G24U C27G yielded a self-cleavage of 0.0792. C25G C27A showed a self-cleavage of 0.105. Work on C25U G45C yielded a self-cleavage of 0.247. C26A G28C gave a self-cleavage of 0.48. For C26A G28U, the self-cleavage was 0.114. In the case of G24A C25A, the self-cleavage is reported as 0.115. G24A C25U showed a self-cleavage of 0.0836. Work on G24A C46A yielded a self-cleavage of 0.0898. In the case of G24A C46U, the self-cleavage is reported as 0.107. In the case of C25G G36U, the self-cleavage is reported as 0.103. Work on C25A A34C yielded a self-cleavage of 0.0515. Variant G24A C27A has a self-cleavage of 0.0771. Work on G24A C27G yielded a self-cleavage of 0.105. With C26A C46G the self-cleavage was 0.358. Variant C26A C46U has a self-cleavage of 0.624. For C25G G42C, the self-cleavage was 0.18. C25G G42A gave a self-cleavage of 0.118. Work on C25G A33G yielded a self-cleavage of 0.148. Work on C26U A35G yielded a self-cleavage of 0.169. With C26U A35C the self-cleavage was 0.446. In the case of C26U A35U, the self-cleavage is reported as 0.553. With C25A G38U the self-cleavage was 0.0853. Work on C26G G44A yielded a self-cleavage of 0.515. C26G G44U gave a self-cleavage of 0.184. With C26A U37C the self-cleavage was 0.105. C25G gave a self-cleavage of 0.458. C25U gave a self-cleavage of 0.881. In the case of C25A, the self-cleavage is reported as 0.144. C26U G41C gave a self-cleavage of 0.154. For C26U G41U, the self-cleavage was 0.145. C25G G29C showed a self-cleavage of 0.109. Work on C25G G29U yielded a self-cleavage of 0.651. Work on C25A G28C yielded a self-cleavage of 0.146. Variant C25A G28U has a self-cleavage of 0.146. With G24C A34G the self-cleavage was 0.103. A23U G45U showed a self-cleavage of 0.249. A23U G45C showed a self-cleavage of 0.141. C25U G41C showed a self-cleavage of 0.147. With C25A G44C the self-cleavage was 0.111. For C25A G44A, the self-cleavage was 0.169. Variant C25A G44U has a self-cleavage of 0.107. Variant G24A A40U has a self-cleavage of 0.112. Variant G24A A40G has a self-cleavage of 0.0838. Work on G24C G38C yielded a self-cleavage of 0.144. With G24C G38U the self-cleavage was 0.0774. For G24C G38A, the self-cleavage was 0.106. C26A G47A gave a self-cleavage of 0.142. C26A G47C gave a self-cleavage of 0.2. With A23U U31G the self-cleavage was 0.643. With G24C C27U the self-cleavage was 0.0994. G24A A32U showed a self-cleavage of 0.0696. With G24A A32G the self-cleavage was 0.11. Variant G24C A33G has a self-cleavage of 0.101. C25A A32C gave a self-cleavage of 0.0985. In the case of C26G G43C, the self-cleavage is reported as 0.141. Variant C26G G43A has a self-cleavage of 0.128. In the case of G24A G41A, the self-cleavage is reported as 0.0508. With G24C G45U the self-cleavage was 0.119. With G24C G39C the self-cleavage was 0.0715. Variant G24A U31G has a self-cleavage of 0.105. Work on C26G G48A yielded a self-cleavage of 0.107. For C25U G38U, the self-cleavage was 0.614. C25U G38C gave a self-cleavage of 0.847. C26G G42A gave a self-cleavage of 0.103. For C26G G42C, the self-cleavage was 0.139. Work on G24U A32C yielded a self-cleavage of 0.113. Variant G24A G29A has a self-cleavage of 0.155. Work on G24A G29U yielded a self-cleavage of 0.1. For G24C G41U, the self-cleavage was 0.0978. Variant G24C G41C has a self-cleavage of 0.0814. Variant C27A A35C has a self-cleavage of 0.58. With A23U U37G the self-cleavage was 0.0831. A23U U37A showed a self-cleavage of 0.178. With A23U U37C the self-cleavage was 0.0907. With C26A G29C the self-cleavage was 0.122. C26A G29U gave a self-cleavage of 0.214. C26A G29A showed a self-cleavage of 0.267. G24C U37C showed a self-cleavage of 0.0778. G24C U37G gave a self-cleavage of 0.12. C27A A34C gave a self-cleavage of 0.0922. For C27A A34G, the self-cleavage was 0.139. For C25U G28A, the self-cleavage was 0.713. Work on C27A A30C yielded a self-cleavage of 0.12. Work on C27A A30U yielded a self-cleavage of 0.707. Work on C25G G38A yielded a self-cleavage of 0.0823. Variant C25G G38U has a self-cleavage of 0.131. C26U showed a self-cleavage of 0.601. C26A gave a self-cleavage of 0.706. With C26G the self-cleavage was 0.449. For G24C G36A, the self-cleavage was 0.115. G24C G36C showed a self-cleavage of 0.0888. Variant C26U A32U has a self-cleavage of 0.34. For C26U A32G, the self-cleavage was 0.411. C26U A32C gave a self-cleavage of 0.451. In the case of C26U G45U, the self-cleavage is reported as 0.145. Variant C25A G45U has a self-cleavage of 0.0929. In the case of C26U G48A, the self-cleavage is reported as 0.185. In the case of C26U G48C, the self-cleavage is reported as 0.301. For C26U G48U, the self-cleavage was 0.32. C25G G45U gave a self-cleavage of 0.145. Variant C25G G45C has a self-cleavage of 0.143. Work on C25G G45A yielded a self-cleavage of 0.132. With G24C A32U the self-cleavage was 0.13. For G24C A32G, the self-cleavage was 0.0875. G24C A32C gave a self-cleavage of 0.118. Work on C26U G38C yielded a self-cleavage of 0.225. In the case of C26U G38A, the self-cleavage is reported as 0.157. C25G C46U gave a self-cleavage of 0.286. With C25U G29U the self-cleavage was 0.824. Variant C25U G29A has a self-cleavage of 0.734. Variant C25U G29C has a self-cleavage of 0.635. Variant C25A A33G has a self-cleavage of 0.079. In the case of C25A A33U, the self-cleavage is reported as 0.0752. G24A G45U showed a self-cleavage of 0.118. For G24A G45C, the self-cleavage was 0.0846. For C26G G36U, the self-cleavage was 0.0699. Work on C26G G36A yielded a self-cleavage of 0.0913. In the case of G24C G43A, the self-cleavage is reported as 0.0738. C25G A32G gave a self-cleavage of 0.216. Variant C25G A32C has a self-cleavage of 0.261. G24C C46A gave a self-cleavage of 0.109. For C25U A40C, the self-cleavage was 0.109. With C25U A40U the self-cleavage was 0.0985. For G24C G44U, the self-cleavage was 0.0952. In the case of C26G U31G, the self-cleavage is reported as 0.348. Variant G24A G43U has a self-cleavage of 0.0769. Variant C26U A34G has a self-cleavage of 0.147. For C26A A32U, the self-cleavage was 0.405. For C26A A32C, the self-cleavage was 0.575. With C25G C26A the self-cleavage was 0.0961. For C27A A32U, the self-cleavage was 0.446. For C27A A32G, the self-cleavage was 0.483.
